From article PMC7923384

Target: ZMYND8 (UniProt Q9ULU4)
Experiment: co-IP of Flag-ZMYND8 and Myc-EZH2
Conditions: reference: wild type; sites T487

## EZH2 (from UniProt Q15910) T487A
  binding against the reference: weaker
